Read-outs that look alike come from different tables or passages of the source.
Tests used:
[1] = target: T1, biotinylated TIM3-ECD-AviHis (human, UniProt Q8TDQ0 22-202, biotinylated, site not stated); experiment: ELISA on coated biotinylated TIM3-ECD-AviHis
T1 construct: also called huTIM3; Hu TIM3

human PD1-ECD [2] = target: T2, human PD1-ECD (human, UniProt Q15116 25-170); experiment: SPR Biacore T200, Ab captured on anti-human Fc IgG, hu PD1-ECD in solution, 25 C
T2 construct: SPR analyte; also called hu PD1-ECD

[3] = target: T3, full-length human PD1 on cells (CHO-K1 stably transfected with plasmid 15311_hPD1-fl_pUC_Neo) (human, UniProt Q15116 25-288); experiment: cell-based or functional assay
[4] = target: T4, biotinylated PD1-ECD-AviHis (human, UniProt Q15116 25-170, biotinylated, site not stated); experiment: ELISA on coated biotinylated PD1-ECD-AviHis
T4 construct: also called huPD1; hu PD1

monomeric human Tim3-ECD = target: T5, monomeric human Tim3-ECD (human, UniProt Q8TDQ0 22-202); experiment: SPR Biacore T200, Ab captured on anti-human Fab IgG, hu Tim3-ECD in solution, 25 C
T5 construct: SPR analyte; also called huTim3; hu Tim3-ECD

[5] = target: T3, full-length human PD1 on cells (CHO-K1 …); experiment: cell ELISA on CHO-K1 cells with full-length human PD1
[6] = target: T6, biotinylated cynoPD1-ECD-Biotin (cynomolgus); experiment: ELISA on coated cynoPD1-ECD-Biotin
T6 construct: extracellular domain; also called cyPD1

human PD1-ECD [7] = target: T2, human PD1-ECD; experiment: SPR Biacore T200, Ab captured on anti-human IgG, 25 C
human PD1-ECD [8] = target: T2, human PD1-ECD; experiment: SPR; row head 'Affinity KD 37°C [nM] *)', first of two values, footnote not explained
[9] = target: T4, biotinylated PD1-ECD-AviHis; experiment: ELISA on coated biotinylated PD1-ECD-AviHis; remark: listed apart in the source
[10] = target: T6, biotinylated cynoPD1-ECD-Biotin; experiment: ELISA, cynomolgus cross-reactivity
human PD1-ECD [11] = target: T2, human PD1-ECD; experiment: SPR; row head 'Affinity KD 37°C [nM] *)', second of two values (equals the 25 C value of Table 9)
[12] = target: T4, biotinylated PD1-ECD-AviHis; experiment: ELISA on coated biotinylated PD1-ECD-AviHis; remark: listed apart in the source

B1: 2+2 PD1TIM3_0358 (chimeric PD1-0103 / Tim3-0028) (bispecific antibody, human IgG1, kappa, L234A L235A)
heavy: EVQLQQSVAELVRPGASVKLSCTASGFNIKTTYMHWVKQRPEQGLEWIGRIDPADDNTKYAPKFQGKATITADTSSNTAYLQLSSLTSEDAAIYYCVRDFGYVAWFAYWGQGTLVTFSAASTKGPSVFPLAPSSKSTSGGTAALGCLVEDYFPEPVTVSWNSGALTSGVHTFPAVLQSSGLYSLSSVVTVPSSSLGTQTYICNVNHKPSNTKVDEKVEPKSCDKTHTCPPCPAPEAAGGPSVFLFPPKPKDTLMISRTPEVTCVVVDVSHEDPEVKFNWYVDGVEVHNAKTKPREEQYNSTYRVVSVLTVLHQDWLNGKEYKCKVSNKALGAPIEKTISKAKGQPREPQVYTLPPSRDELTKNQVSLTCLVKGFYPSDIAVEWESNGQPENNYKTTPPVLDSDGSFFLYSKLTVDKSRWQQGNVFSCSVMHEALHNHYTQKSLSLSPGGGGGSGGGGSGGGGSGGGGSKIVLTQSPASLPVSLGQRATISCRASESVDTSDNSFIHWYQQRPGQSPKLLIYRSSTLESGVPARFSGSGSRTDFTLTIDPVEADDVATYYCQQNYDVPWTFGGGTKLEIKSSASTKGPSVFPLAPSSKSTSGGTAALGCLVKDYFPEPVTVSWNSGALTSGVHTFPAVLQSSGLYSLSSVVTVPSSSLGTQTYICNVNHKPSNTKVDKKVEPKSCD
light 1: NIVMTPTPKFLPVSSGDRVTMTCRASQSVDNYVAWYQQKPGQSPKLLIYYASNRYIGVPDRFTGSGSGTDFTFTISSVQVEDLAVYFCQQHYSSPYTFGSGTKLEIKRTVAAPSVFIFPPSDRKLKSGTASVVCLLNNFYPREAKVQWKVDNALQSGNSQESVTEQDSKDSTYSLSSTLTLSKADYEKHKVYACEVTHQG
light 2: EVILVESGGGLVKPGGSLKLSCAASGFSFSSYTMSWVRQTPEKRLDWVATISGGGRDIYYPDSVKGRFTISRDNAKNTLYLEMSSLMSEDTALYYCVLLTGRVYFALDSWGQGTSVTVSSASVAAPSVFIFPPSDEQLKSGTASVVCLLNNFYPREAKVQWKVDNALQSGNSQESVTEQDSKDSTYSLSSTLTLSKADYEKHKVYACEVTHQGLSSPVTKSFNRGEC
notes: also called PD1TIM3-0358 (2 + 2); Bispec AB 0358 (2+2)
For B1, the EC50 [1] was 0.19 nM, the Kd (human PD1-ECD [2]) was 0.3 nM and the “EC50 of IFN-gamma secretion in MLR, donors D1 + D3” value [3] was 6.8 nM. The “EC50 of IFN-gamma secretion in MLR, donors D2 + D4” value [3] was 5.7 nM, the EC50 [4] was 0.08 nM and the Kd (monomeric human Tim3-ECD) was 240 nM.

B2: PD1-0103-0312 (antibody, human IgG1, V domains shown)
VH: EVQLLESGGGLVQPGGSLRLSCAASGFSFSSYTMSWVRQAPGKGLEWVATISGGGRDIYYPDSVKGRFTISRDNSKNTLYLQMNSLRAEDTAVYYCVLLTGRVYFALDSWGQGTLVTVSS
VL: DIVMTQSPDSLAVSLGERATINCKASESVDTSDNSFIHWYQQKPGQSPKLLIYRSSTLESGVPDRFSGSGSGTDFTLTISSLQAEDVAVYYCQQNYDVPWTFGQGTKVEIK
notes: Humanized
Binder B2 has an EC50 [5] of 0.0101 µg/mL, an EC50 [6] of 0.0083 µg/mL and a Kd (human PD1-ECD [7]) of 1.8 nM. It also gave a koff (human PD1-ECD [7]) of 0.000345 s⁻¹, a kon (human PD1-ECD [7]) of 195000 M⁻¹ s⁻¹ and a Kd (human PD1-ECD [8]) of 1.5 nM. The EC50 [9] was 0.011 µg/mL, the EC50 [10] was 0.08 nM and the Kd (human PD1-ECD [11]) was 1.8 nM. The EC50 [12] was 0.1 nM.

B3: PD1-0103-0313 (antibody, human IgG1, V domains shown)
VH: B2 VH
VL: DVVMTQSPLSLPVTLGQPASISCRASESVDTSDNSFIHWYQQRPGQSPRLLIYRSSTLESGVPDRFSGSGSGTDFTLKISRVEAEDVGVYYCQQNYDVPWTFGQGTKVEIK
notes: Humanized
In the case of B3, the EC50 [5] is reported as 0.0108 µg/mL, the EC50 [6] is reported as 0.011 µg/mL and the Kd (human PD1-ECD [7]) is reported as 2.3 nM. The koff (human PD1-ECD [7]) was 0.000367 s⁻¹, the kon (human PD1-ECD [7]) was 160000 M⁻¹ s⁻¹ and the Kd (human PD1-ECD [8]) was 1.9 nM. The EC50 [9] was 0.015 µg/mL, the EC50 [10] was 0.06 nM and the Kd (human PD1-ECD [11]) was 2.3 nM. It also gave an EC50 [12] of 0.07 nM.

B4: PD1-0103-0315 (antibody, human IgG1, V domains shown)
VH: B2 VH
VL: EIVLTQSPATLSLSPGERATLSCRASESVDTSDNSFIHWYQQKPGQSPRLLIYRSSTLESGIPARFSGSGSGTDFTLTISSLEPEDFAVYYCQQNYDVPWTFGQGTKVEIK
notes: Humanized
Work on B4 yielded an EC50 [5] of 0.0073 µg/mL, an EC50 [6] of 0.0079 µg/mL and a Kd (human PD1-ECD [7]) of 1.5 nM. It also gave a koff (human PD1-ECD [7]) of 0.000291 s⁻¹, a kon (human PD1-ECD [7]) of 189000 M⁻¹ s⁻¹ and a Kd (human PD1-ECD [8]) of 1.7 nM. It also gave an EC50 [9] of 0.01 µg/mL, an EC50 [10] of 0.04 nM and a Kd (human PD1-ECD [11]) of 1.5 nM. The EC50 [12] was 0.06 nM.

B5: PD1-0103-0314 (antibody, human IgG1, V domains shown)
VH: B2 VH
VL: B4 VL
notes: Humanized
B5 showed an EC50 [5] of 0.0077 µg/mL, an EC50 [6] of 0.0083 µg/mL and a Kd (human PD1-ECD [7]) of 1.5 nM. The koff (human PD1-ECD [7]) was 0.000279 s⁻¹, the kon (human PD1-ECD [7]) was 187000 M⁻¹ s⁻¹ and the Kd (human PD1-ECD [8]) was 1.6 nM. For the same binder, the EC50 [9] was 0.011 µg/mL, the EC50 [10] was 0.05 nM and the Kd (human PD1-ECD [11]) was 1.5 nM. For the same binder, the EC50 [12] was 0.07 nM.

— US20190322748A1 (Hoffmann-La Roche, published 2019)
